We go through 22 molecules from patent US20230272055A1 (Incyte, published 2023).

Positions count from the first letter of the chain named. Names and notes keep the numbering of the source.

Sequences and labels used below:
B1: anti-mutCALR antibody clone 171 (antibody, human IgG1, lambda, N297A, V domains shown)
VH: EVQLVQSGAEVKKPGASVKVSCKVSGYTLTELSMQWVRQAPGKGLEWMGGFDPDAGETMYAEKFQGRLTVTEDTSTDTVYMELRSLTSEDTALYFCATSPGYDFFDYWGQGTLVTVSS
VL: SYVLTQPPSVSVAPGQTARITCGGSDIGDEIVHWYQQKPGQAPVLVVYDDSDRPSGIPERFSGSNSGNTATLTISRAQAGDEADYYCQVWDSSSDHLIFGGGTKLTVLG
notes: human IgG1 N297A variant of clone 17
B2: anti-mutCALR antibody clone 188 (antibody, human IgG1, lambda, N297A, V domains shown)
VH: B1 VH with A55E, R84S, T87R, L93V
VL: B1 VL with A77V, Q78E
notes: as for B1
B3: anti-mutCALR antibody clone 183 (antibody, human IgG1, lambda, N297A, V domains shown)
VH: B1 VH with A55E
VL: B1 VL with A77V, Q78E
B4: anti-mutCALR antibody clone 173 (antibody, human IgG1, lambda, N297A, V domains shown)
VH: B1 VH with A55E
VL: B1 VL
B5: anti-mutCALR antibody clone 182 (antibody, human IgG1, lambda, N297A, V domains shown)
VH: B1 VH with A55S
VL: B1 VL with A77V, Q78E
notes: as for B1
B6: anti-mutCALR antibody clone 181 (antibody, human IgG1, lambda, N297A, V domains shown)
VH: B1 VH
VL: B1 VL with A77V, Q78E
notes: as for B1
B7: anti-mutCALR antibody clone 189 (antibody, human IgG1, lambda, N297A, V domains shown)
VH: B1 VH with A55D, G56A, R84S, T87R, L93V
VL: B1 VL with A77V, Q78E
B8: anti-mutCALR antibody clone 186 (antibody, human IgG1, lambda, N297A, V domains shown)
VH: B1 VH with R84S, T87R, L93V
VL: B1 VL with A77V, Q78E
notes: as for B1
B9: anti-mutCALR antibody clone 187 (antibody, human IgG1, lambda, N297A, V domains shown)
VH: B1 VH with A55S, R84S, T87R, L93V
VL: B1 VL with A77V, Q78E
notes: as for B1
B10: anti-mutCALR antibody clone 184 (antibody, human IgG1, lambda, N297A, V domains shown)
VH: B1 VH with A55D, G56A
VL: B1 VL with A77V, Q78E
notes: as for B1
B11: anti-mutCALR antibody clone 174 (antibody, human IgG1, lambda, N297A, V domains shown)
VH: B1 VH with A55D, G56A
VL: B1 VL
B12: anti-mutCALR antibody clone 172 (antibody, human IgG1, lambda, N297A, V domains shown)
VH: B1 VH with A55S
VL: B1 VL
notes: as for B1
B13: anti-mutCALR antibody clone 180 (antibody, human IgG1, lambda, N297A, V domains shown)
VH: B1 VH with A55D
VL: B1 VL with A77V, Q78E
notes: as for B1
B14: anti-mutCALR antibody clone 185 (antibody, human IgG1, lambda, N297A, V domains shown)
VH: B1 VH with A55D, R84S, T87R, L93V
VL: B1 VL with A77V, Q78E
notes: as for B1
B15: anti-mutCALR antibody clone 55 (antibody, human IgG1, lambda, N297A)
heavy: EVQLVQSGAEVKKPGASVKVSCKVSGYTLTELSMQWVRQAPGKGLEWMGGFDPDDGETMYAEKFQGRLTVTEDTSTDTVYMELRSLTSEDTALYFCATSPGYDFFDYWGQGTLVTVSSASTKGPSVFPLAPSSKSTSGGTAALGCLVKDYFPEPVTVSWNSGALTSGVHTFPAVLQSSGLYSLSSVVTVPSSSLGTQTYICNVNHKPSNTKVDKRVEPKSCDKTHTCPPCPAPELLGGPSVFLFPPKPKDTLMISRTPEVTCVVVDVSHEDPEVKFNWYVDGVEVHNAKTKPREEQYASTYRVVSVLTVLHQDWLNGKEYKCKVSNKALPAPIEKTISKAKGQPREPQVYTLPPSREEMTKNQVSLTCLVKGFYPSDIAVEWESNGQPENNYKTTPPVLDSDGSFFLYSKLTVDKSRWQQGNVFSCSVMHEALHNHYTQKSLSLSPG
light: QSALTQPASVSGSPGQSITISCTGTSSDVGGYNYVSWYQQHPGKAPKLMIYEVSNRPSGVSNRFSGSNSGNTATLTINRVEAGDEADYYCQVWDSSNDLLIFGGGTKLTVLGQPKAAPSVTLFPPSSEELQANKATLVCLISDFYPGAVTVAWKADSSPVKAGVETTTPSKQSNNKYAASSYLSLTPEQWKSHRSYSCQVTHEGSTVEKTVAPTECS
notes: human IgG1 N297A variant of clone 6; also called antibody 55
B16: anti-mutCALR antibody clone 61 (antibody, human IgG1, lambda, N297A, V domains shown)
VH: B1 VH with R84S, T87R, L93V
VL: QSALTQPASVSGSPGQSITISCTGTSSDVGGYNYVSWYQQHPGKAPKLMIYEVSNRPSGVSNRFSGSNSGNTATLTINRVEAGDEADYYCQVWDSSNDLLIFGGGTKLTVLG
notes: human IgG1 N297A variant of clone 6
B17: anti-mutCALR antibody clone 58 (antibody, human IgG1, lambda, N297A, V domains shown)
VH: B1 VH with A55E
VL: B16 VL
notes: as for B16
B18: anti-mutCALR antibody clone 56 (antibody, human IgG1, lambda, N297A, V domains shown)
VH: B1 VH
VL: B16 VL
notes: as for B16
B19: anti-mutCALR antibody clone 60 (antibody, human IgG1, lambda, N297A, V domains shown)
VH: B1 VH with A55D, R84S, T87R, L93V
VL: B16 VL
notes: as for B16
B20: anti-mutCALR antibody clone 62 (antibody, human IgG1, lambda, N297A, V domains shown)
VH: B1 VH with A55S, R84S, T87R, L93V
VL: B16 VL
notes: as for B16
B21: anti-mutCALR antibody clone 59 (antibody, human IgG1, lambda, N297A, V domains shown)
VH: B1 VH with A55D, G56A
VL: B16 VL
notes: as for B16
B22: anti-mutCALR antibody clone 57 (antibody, human IgG1, lambda, N297A, V domains shown)
VH: B1 VH with A55S
VL: B16 VL
notes: as for B16

For the test, the target named is T1, Recombinant MBP-mutCALR Type 1 fusion protein (human).
T1 construct: custom made at Cepter; also called recombinant mutCALR protein
The test is described as follows: SPR, IgG captured, 1:1 fit, Exp. 2. The procedure:
Experiment 2: Recombinant MBP-mutCALR Type 1 fusion protein was custom made at Cepter (cepterbiopartners.com). Data for the interaction of antibodies with recombinant mutCALR protein were collected at 25° C. on a Biacore 8K instrument (Cytiva, Marlborough, Mass.), and all reagents were obtained from Cytiva unless otherwise specified. The experiments were conducted using Tris-buffered saline (pH 7.2), 0.005% Surfactant P20, 1 mM CaCl₂) as running buffer. To prepare the capture surfaces, anti-human IgG (Fc) antibodies (Product #29234600) was amine-coupled onto a CM4 chip (Product #BR100534) under standard conditions using an Amine Coupling Kit (Product #BR100050). […] The kinetics parameters were obtained by applying 1:1 binding model to fit the data from multiple-cycle injection experiments using Biacore Insight Evaluation software.
(SPR reads the build-up and loss of mass on a sensor chip optically.)
The term Kd denotes the concentration at which binding is half-saturated. For orientation: koff means the rate constant with which the complex falls apart. A word on the kon: it is the rate constant with which the complex forms. For the molecule B1, the Kd was found to be 1.65 nM, the koff was found to be 0.0109 s⁻¹ and the on-rate constant (kon) is 6.57e+06 M⁻¹ s⁻¹.

With B2, the dissociation constant (Kd) was determined as 1.65 nM, the koff came to 0.00121 s⁻¹ and the kon was 732000 M⁻¹ s⁻¹.

For the molecule B3, the Kd worked out at 1 nM, the off-rate (koff) turned out to be 0.00124 s⁻¹ and the kon was found to be 1.23e+06 M⁻¹ s⁻¹.

As to B4, the Kd is 0.653 nM, the koff amounted to 0.00349 s⁻¹ and the on-rate constant (kon) was 5.35e+06 M⁻¹ s⁻¹.

On to B5, for which the Kd came to 1.23 nM, the koff turned out to be 0.00692 s⁻¹ and the kon was found to be 5.62e+06 M⁻¹ s⁻¹.

Consider B6, for which the dissociation constant (Kd) stood at 1.58 nM, the koff amounted to 0.0209 s⁻¹ and the kon was determined as 1e+07 M⁻¹ s⁻¹.

On to B7, for which the equilibrium dissociation constant (Kd) is 0.422 nM, the koff amounted to 0.0153 s⁻¹ and the association rate constant (kon) is over 1e+07 M⁻¹ s⁻¹.

Consider B8, for which the Kd amounted to 2.86 nM, the koff amounted to 0.00243 s⁻¹ and the kon is 848000 M⁻¹ s⁻¹.

As to B9, the Kd came to 1.59 nM, the off-rate (koff) turned out to be 0.0163 s⁻¹ and the kon was found to be 1e+07 M⁻¹ s⁻¹.

For B10, the equilibrium dissociation constant (Kd) stood at 1.57 nM, the koff was found to be 0.000673 s⁻¹ and the kon came to 428000 M⁻¹ s⁻¹.

As to B11, the Kd worked out at 0.526 nM, the koff stood at 0.0041 s⁻¹ and the on-rate constant (kon) was found to be 7.8e+06 M⁻¹ s⁻¹.

With B12, the Kd worked out at 2.24 nM, the dissociation rate constant (koff) worked out at 0.0025 s⁻¹ and the on-rate (kon) was 1.12e+06 M⁻¹ s⁻¹.

With B13, the Kd came to 0.198 nM, the koff turned out to be 0.127 s⁻¹ and the kon was over 1e+07 M⁻¹ s⁻¹.

On to B14, for which the Kd amounted to 0.171 nM, the koff was 0.000911 s⁻¹ and the kon was determined as 5.32e+06 M⁻¹ s⁻¹.

With B15, the Kd amounted to 0.171 nM, the koff turned out to be 0.000911 s⁻¹ and the kon worked out at 5.32e+06 M⁻¹ s⁻¹.

Take B16: the Kd stood at 0.893 nM, the koff was 0.00369 s⁻¹ and the kon turned out to be 4.13e+06 M⁻¹ s⁻¹.

For the molecule B17, the Kd came out at 0.343 nM, the dissociation rate constant (koff) worked out at 0.00232 s⁻¹ and the kon came to 6.76e+06 M⁻¹ s⁻¹.

For the molecule B18, the Kd was determined as 3.08 nM, the koff is 0.00212 s⁻¹ and the kon turned out to be 690000 M⁻¹ s⁻¹.

B19: the Kd came out at 1.15 nM, the koff is 0.00166 s⁻¹ and the kon was 1.44e+06 M⁻¹ s⁻¹.

Consider B20, for which the Kd is 1.76 nM, the off-rate constant (koff) came out at 0.00621 s⁻¹ and the on-rate constant (kon) turned out to be 3.52e+06 M⁻¹ s⁻¹.

As for B21, the Kd is 1.44 nM, the koff was determined as 0.00136 s⁻¹ and the kon was 945000 M⁻¹ s⁻¹.

Take B22: the Kd stood at 0.637 nM, the koff amounted to 0.0039 s⁻¹ and the kon was found to be 6.12e+06 M⁻¹ s⁻¹.
